Patent publication US20090093061A1

Assays:
Experiment in all cases: GroEL-490 bead column capture of denatured serum, ATP elution, LC-MS-MS
[1] = target: similar to CXYorf1-related protein (Homo sapiens)
[2] = target: tumor protein p53 binding protein, 2 (Homo sapiens) (UniProt Q13625)
[3] = target: UDP glycosyltransferase 2 family, polypeptide B7 (Homo sapiens) (UniProt P16662)
[4] = target: WD repeat membrane protein PWDMP (Homo sapiens) (UniProt Q8NEZ3)
KIAA0317 (Homo sapiens) = KIAA0317 (Homo sapiens) (UniProt O15033)
[5] = target: p47 protein isoform a (Homo sapiens) (UniProt Q9UNZ2)
[6] = target: hypothetical protein FLJ22344 (Homo sapiens)
[7] = target: hypothetical protein FLJ21439 (Homo sapiens)
[8] = target: complement component 4B proprotein (Homo sapiens) (UniProt P0C0L5)
[9] = target: Hpall tiny fragments locus 9C isoform2 (Homo sapiens) (UniProt Q8IZ69)
Hpall tiny fragments locus 9C isoform2 (Homo sapiens), sequence (Q8IZ69 other isoform, or with tags, fused parts or gaps): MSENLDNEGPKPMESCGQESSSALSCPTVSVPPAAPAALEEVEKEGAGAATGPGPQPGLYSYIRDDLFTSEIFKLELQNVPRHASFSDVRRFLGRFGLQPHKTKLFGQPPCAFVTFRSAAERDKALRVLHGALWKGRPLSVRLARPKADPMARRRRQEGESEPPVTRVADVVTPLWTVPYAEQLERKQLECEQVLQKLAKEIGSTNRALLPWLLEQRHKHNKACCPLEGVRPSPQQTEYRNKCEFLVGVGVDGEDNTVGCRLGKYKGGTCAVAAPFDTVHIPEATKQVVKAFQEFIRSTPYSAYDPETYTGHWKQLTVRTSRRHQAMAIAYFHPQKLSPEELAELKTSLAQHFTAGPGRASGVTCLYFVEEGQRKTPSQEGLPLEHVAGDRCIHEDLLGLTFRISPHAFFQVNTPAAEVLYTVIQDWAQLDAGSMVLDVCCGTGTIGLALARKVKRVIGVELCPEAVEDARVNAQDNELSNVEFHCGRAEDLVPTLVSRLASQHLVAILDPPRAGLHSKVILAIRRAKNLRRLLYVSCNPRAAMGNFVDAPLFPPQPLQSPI

[10] = target: E74-like factor 4 (ets domain transcription factor) (Homo sapiens) (UniProt Q99607)
[11] = target: 3-phosphoinositide dependent protein kinase-1 (Homo sapiens) (UniProt O15530)
3-phosphoinositide dependent protein kinase-1 (Homo sapiens), sequence (O15530 whole entry): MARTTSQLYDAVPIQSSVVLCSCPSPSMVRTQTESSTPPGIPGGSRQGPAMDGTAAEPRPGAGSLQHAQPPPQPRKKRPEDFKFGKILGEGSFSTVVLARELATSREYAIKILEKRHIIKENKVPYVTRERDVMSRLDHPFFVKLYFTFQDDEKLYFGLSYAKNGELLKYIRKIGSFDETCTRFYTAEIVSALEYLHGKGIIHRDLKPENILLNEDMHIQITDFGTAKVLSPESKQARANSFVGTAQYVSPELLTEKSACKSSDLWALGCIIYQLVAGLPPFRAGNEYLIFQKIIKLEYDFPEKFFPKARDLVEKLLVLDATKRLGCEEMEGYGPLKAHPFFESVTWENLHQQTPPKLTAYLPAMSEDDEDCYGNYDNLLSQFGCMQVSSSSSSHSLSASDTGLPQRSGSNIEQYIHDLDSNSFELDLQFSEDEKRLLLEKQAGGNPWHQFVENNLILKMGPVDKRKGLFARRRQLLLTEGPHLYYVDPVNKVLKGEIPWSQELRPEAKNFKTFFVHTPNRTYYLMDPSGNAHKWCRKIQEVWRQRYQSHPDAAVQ

[12] = target: solute carrier family 4, anion exchanger, member 2 (erythrocyte membrane protein band 3-liKe 1) (Homo sapiens) (UniProt P04920)
[13] = target: similar to KIAA2018 protein (Homo sapiens) (UniProt Q68DE3)
similar to KIAA2018 protein (Homo sapiens), sequence (Q68DE3 whole entry): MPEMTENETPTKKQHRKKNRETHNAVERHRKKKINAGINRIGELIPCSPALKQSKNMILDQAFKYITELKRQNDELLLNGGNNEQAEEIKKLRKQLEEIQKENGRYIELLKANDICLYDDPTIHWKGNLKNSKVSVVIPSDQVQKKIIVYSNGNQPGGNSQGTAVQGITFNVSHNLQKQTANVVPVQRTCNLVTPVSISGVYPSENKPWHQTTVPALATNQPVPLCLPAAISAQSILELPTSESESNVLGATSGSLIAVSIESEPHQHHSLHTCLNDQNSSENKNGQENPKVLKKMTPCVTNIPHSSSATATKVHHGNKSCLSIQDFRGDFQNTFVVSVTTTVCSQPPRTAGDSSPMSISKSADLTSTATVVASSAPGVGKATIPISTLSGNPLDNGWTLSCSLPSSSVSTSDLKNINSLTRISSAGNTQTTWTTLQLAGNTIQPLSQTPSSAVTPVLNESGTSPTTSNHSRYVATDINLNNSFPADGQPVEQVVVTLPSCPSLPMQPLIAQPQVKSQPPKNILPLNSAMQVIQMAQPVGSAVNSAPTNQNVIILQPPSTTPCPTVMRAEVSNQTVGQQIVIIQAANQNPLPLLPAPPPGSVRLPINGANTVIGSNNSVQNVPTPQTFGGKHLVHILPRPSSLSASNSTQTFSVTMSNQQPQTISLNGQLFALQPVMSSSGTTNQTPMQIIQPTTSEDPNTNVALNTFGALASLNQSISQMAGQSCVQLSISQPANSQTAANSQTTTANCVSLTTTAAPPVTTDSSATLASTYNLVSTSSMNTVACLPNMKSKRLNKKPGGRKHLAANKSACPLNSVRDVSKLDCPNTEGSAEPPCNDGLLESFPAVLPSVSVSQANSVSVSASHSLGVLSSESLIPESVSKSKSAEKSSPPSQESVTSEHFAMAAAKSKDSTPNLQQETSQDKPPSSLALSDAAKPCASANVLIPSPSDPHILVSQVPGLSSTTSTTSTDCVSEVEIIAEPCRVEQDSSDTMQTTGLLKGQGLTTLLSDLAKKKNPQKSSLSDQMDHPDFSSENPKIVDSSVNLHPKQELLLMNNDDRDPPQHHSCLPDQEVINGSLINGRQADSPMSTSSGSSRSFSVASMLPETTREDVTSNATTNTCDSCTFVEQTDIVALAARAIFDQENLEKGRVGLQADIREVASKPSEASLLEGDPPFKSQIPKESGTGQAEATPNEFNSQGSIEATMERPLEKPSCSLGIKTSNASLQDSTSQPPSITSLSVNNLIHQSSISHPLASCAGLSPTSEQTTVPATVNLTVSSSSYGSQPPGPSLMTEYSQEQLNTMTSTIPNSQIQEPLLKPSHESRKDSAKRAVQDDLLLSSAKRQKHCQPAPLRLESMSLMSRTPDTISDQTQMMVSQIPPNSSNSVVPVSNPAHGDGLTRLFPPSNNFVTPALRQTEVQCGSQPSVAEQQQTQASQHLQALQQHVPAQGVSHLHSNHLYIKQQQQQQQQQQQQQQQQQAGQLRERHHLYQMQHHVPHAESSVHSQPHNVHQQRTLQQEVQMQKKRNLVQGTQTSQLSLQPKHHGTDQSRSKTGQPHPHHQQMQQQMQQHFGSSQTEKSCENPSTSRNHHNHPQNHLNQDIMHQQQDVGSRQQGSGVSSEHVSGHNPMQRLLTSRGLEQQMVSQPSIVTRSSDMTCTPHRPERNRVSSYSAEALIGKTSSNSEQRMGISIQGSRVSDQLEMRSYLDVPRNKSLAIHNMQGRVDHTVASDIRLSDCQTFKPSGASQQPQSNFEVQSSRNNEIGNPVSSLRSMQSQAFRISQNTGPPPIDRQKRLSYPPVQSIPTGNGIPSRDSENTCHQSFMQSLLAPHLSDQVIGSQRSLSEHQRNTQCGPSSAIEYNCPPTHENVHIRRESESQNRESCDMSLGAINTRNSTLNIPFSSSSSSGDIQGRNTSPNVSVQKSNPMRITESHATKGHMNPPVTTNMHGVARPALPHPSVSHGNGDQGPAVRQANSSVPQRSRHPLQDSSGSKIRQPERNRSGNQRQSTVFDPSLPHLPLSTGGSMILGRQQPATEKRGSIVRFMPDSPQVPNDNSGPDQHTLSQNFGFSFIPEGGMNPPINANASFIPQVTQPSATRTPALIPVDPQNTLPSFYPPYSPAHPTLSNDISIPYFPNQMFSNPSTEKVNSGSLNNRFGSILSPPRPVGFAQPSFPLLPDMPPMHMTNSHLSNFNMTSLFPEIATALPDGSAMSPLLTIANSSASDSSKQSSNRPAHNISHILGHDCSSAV

[14] = target: inter-alpha (globulin) inhibitor, H2 polypeptide (Homo sapiens) (UniProt P19823)
[15] = target: albumin precursor (Homo sapiens) (UniProt P02768)
[16] = target: 3-hydroxyanthranilate 3,4-dioxygenase (Homo sapiens) (UniProt P46952)
3-hydroxyanthranilate 3,4-dioxygenase (Homo sapiens), sequence (P46952 whole entry): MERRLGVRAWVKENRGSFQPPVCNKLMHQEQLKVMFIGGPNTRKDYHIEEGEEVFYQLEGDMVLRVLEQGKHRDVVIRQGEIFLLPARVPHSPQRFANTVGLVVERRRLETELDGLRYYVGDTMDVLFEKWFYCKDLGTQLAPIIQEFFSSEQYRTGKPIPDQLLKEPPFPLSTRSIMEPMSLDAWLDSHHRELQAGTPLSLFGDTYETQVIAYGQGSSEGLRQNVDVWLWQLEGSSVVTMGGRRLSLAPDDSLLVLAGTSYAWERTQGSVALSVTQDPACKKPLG

[17] = target: human immunodeficiency virus type I enhancer binding protein 2 (Homo sapiens) (UniProt P31629)
[18] = target: PDZ domain-containing guanine nucleotide exchange factor I (Homo sapiens) (UniProt Q8TEU7)
[19] = target: titin isoform N2-A (Homo sapiens) (UniProt Q8WZ42)
[20] = target: phosphoinositol 3-phosphate-binding protein-2 (Homo sapiens) (UniProt Q9HAU0)
[21] = target: H factor 1 (complement) (Homo sapiens) (UniProt P08603)
[22] = target: ankyrin repeat domain 26 (Homo sapiens) (UniProt Q9UPS8)
[23] = target: angiomotin like 2 (Homo sapiens) (UniProt Q9Y2J4)
[24] = target: peroxisome biogenesis factor 13 (Homo sapiens) (UniProt Q92968)
peroxisome biogenesis factor 13 (Homo sapiens), sequence (Q92968 whole entry): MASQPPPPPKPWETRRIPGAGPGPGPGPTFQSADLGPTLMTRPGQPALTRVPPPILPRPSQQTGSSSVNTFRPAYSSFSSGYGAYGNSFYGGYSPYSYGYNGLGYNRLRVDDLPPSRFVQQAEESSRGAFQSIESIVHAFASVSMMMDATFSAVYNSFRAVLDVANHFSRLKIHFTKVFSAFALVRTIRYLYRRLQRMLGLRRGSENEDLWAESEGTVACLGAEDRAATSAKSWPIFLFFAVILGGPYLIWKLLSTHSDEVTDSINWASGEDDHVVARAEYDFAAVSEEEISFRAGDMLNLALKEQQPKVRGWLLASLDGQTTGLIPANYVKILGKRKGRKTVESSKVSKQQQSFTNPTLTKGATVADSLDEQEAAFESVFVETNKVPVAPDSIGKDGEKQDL

[25] = target: UDP glycosyltransferase 1 family, polypeptide A9 (Homo sapiens) (UniProt O60656)
[26] = target: T1, similar to Nonhistone chromosomal protein HMG-14 (High-mobility group nucleosome binding domain 1) (Homo sapiens) (UniProt P05114)
T1 sequence (looked up): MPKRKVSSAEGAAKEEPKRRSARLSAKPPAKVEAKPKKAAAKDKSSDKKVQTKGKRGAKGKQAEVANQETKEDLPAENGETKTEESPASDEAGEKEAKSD

[27] = target: dynein, cytoplasmic, heavy polypeptide 2 (Homo sapiens) (UniProt Q8NCM8)
[28] = target: similar to zinc finger, CW-type with PWWP domain 1 (Homo sapiens)
[29] = target: NYD-SP11 protein (Homo sapiens)
[30] = target: v-raf murine sarcoma 3611 viral oncogene homolog 1 (Homo sapiens) (UniProt P10398)
[31] = target: similar to hypothetical protein (Homo sapiens)
[32] = target: DNA polymerase theta isoform 1 (Homo sapiens) (UniProt O75417)

GroEL having Aspartate 490 substituted with Cysteine, biotinylated and conjugated onto NeutrAvidin beads, sequence (A1AJ51 whole entry D490C): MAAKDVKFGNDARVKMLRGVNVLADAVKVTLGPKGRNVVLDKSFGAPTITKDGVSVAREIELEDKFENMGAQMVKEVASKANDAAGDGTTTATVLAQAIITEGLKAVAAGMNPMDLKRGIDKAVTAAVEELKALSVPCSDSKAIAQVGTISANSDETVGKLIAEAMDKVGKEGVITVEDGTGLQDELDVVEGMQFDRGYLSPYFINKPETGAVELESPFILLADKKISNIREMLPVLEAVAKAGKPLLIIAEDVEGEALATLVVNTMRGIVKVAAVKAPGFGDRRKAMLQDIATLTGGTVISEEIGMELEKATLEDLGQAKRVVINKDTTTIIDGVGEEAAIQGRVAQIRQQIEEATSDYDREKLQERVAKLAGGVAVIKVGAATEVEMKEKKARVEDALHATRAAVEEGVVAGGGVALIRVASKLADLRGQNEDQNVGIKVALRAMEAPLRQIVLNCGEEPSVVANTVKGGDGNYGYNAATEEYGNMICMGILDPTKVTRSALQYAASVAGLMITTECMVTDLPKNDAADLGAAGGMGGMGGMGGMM
similar to CXYorf1-related protein (Homo sapiens), sequence (A8K0Z3 whole entry): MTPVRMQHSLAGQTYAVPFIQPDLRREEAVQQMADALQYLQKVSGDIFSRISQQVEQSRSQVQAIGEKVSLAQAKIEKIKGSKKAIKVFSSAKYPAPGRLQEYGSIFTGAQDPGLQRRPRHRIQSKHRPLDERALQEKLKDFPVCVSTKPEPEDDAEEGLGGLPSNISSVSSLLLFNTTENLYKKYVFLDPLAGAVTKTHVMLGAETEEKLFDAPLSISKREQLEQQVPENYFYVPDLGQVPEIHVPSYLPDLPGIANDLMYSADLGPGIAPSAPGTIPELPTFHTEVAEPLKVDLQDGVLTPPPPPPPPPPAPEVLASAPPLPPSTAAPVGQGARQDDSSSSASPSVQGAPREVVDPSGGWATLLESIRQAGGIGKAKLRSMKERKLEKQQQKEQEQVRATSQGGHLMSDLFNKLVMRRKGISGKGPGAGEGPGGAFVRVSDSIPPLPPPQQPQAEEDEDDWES

GroEL having Aspartate 490 substituted with Cysteine, biotinylated and conjugated onto NeutrAvidin beads (from UniProt A1AJ51 1-548)
Spectrum Count [1]: 110 count | Spectrum Count [2]: 9 count | Spectrum Count [3]: 26 count | Spectrum Count [4]: 16 count | Spectrum Count (KIAA0317 (Homo sapiens)): 10 count | Spectrum Count [5]: 22 count | Spectrum Count [6]: 10 count | Spectrum Count [7]: 11 count | Spectrum Count [8]: 11 count | Spectrum Count [9]: 34 count | Spectrum Count [10]: 17 count | Spectrum Count [11]: 13 count | Spectrum Count [12]: 12 count | Spectrum Count [13]: 12 count | Spectrum Count [14]: 10 count | Spectrum Count [15]: 475 count | Spectrum Count [16]: 9 count | Spectrum Count [17]: 14 count | Spectrum Count [18]: 9 count | Spectrum Count [19]: 16 count | Spectrum Count [20]: 9 count | Spectrum Count [21]: 12 count | Spectrum Count [22]: 9 count | Spectrum Count [23]: 17 count | Spectrum Count [24]: 38 count | Spectrum Count [25]: 13 count | Spectrum Count [26]: 13 count | Spectrum Count [27]: 10 count | Spectrum Count [28]: 16 count | Spectrum Count [29]: 11 count | Spectrum Count [30]: 13 count | Spectrum Count [31]: 13 count | Spectrum Count [32]: 24 count
